This note sets out measurements from patent US20210388087A1 (Chugai, published 2021).

Where a chain is given by its changes, count along the chain named. Names and notes keep the numbering of the source.

B1: H183/L072 VL T31H (antibody, name in Kabat numbering, V domains shown)
VH: QVQLVESGGGLVQPGRSLRLSCAASGFTFSNAWMHWVRQAPGKGLEWVAQIKDKGNAYAAYYAPSVKGRFTISRDDSKNSIYLQMNSLKTEDTAVYYCHYVHYASASTVLPAFGVDAWGQGTTVTVSS
VL: DIVMTQSPLSLPVTPGEPASISCQASQELVHMNRNHYLHWYQQKPGQAPRLLIYKVSNRFPGVPDRFSGSGSGTDFTLKISRVEAEDVGVYYCAQGTSVPFTFGQGTKLEIK
B2: H183/L072 VL T92V (antibody, name in Kabat numbering, V domains shown)
VH: B1 VH
VL: B1 VL with H36T, T97V
B3: H183/L072 VL T97Q (antibody, name in Kabat numbering, V domains shown)
VH: B1 VH
VL: B1 VL with H36T, T102Q
B4: H183/L072 VL T92H (antibody, name in Kabat numbering, V domains shown)
VH: B1 VH
VL: B1 VL with H36T, T97H
B5: H183/L072 VL T97E (antibody, name in Kabat numbering, V domains shown)
VH: B1 VH
VL: B1 VL with H36T, T102E
B6: H183/L072 VL T92M (antibody, name in Kabat numbering, V domains shown)
VH: B1 VH
VL: B1 VL with H36T, T97M
B7: H183/L072 VL T31Q (antibody, name in Kabat numbering, V domains shown)
VH: B1 VH
VL: B1 VL with H36Q
B8: H183/L072 VL T92S (antibody, name in Kabat numbering, V domains shown)
VH: B1 VH
VL: B1 VL with H36T, T97S
B9: H183/L072 VL V27cD (antibody, name in Kabat numbering, V domains shown)
VH: B1 VH
VL: B1 VL with V30D, H36T
B10: H183/L072 VL T31L (antibody, name in Kabat numbering, V domains shown)
VH: B1 VH
VL: B1 VL with H36L
B11: H183/L072 VL T92A (antibody, name in Kabat numbering, V domains shown)
VH: B1 VH
VL: B1 VL with H36T, T97A
B12: H183/L072 VL T97V (antibody, name in Kabat numbering, V domains shown)
VH: B1 VH
VL: B1 VL with H36T, T102V
B13: H183/L072 VL T31I (antibody, name in Kabat numbering, V domains shown)
VH: B1 VH
VL: B1 VL with H36I
B14: H183/L072 VL T92R (antibody, name in Kabat numbering, V domains shown)
VH: B1 VH
VL: B1 VL with H36T, T97R
B15: H183/L072 VL T92K (antibody, name in Kabat numbering, V domains shown)
VH: B1 VH
VL: B1 VL with H36T, T97K
B16: H183/L072 VL V27cA (antibody, name in Kabat numbering, V domains shown)
VH: B1 VH
VL: B1 VL with V30A, H36T
B17: H183/L072 VL T31V (antibody, name in Kabat numbering, V domains shown)
VH: B1 VH
VL: B1 VL with H36V
B18: H183/L072 VL T97R (antibody, name in Kabat numbering, V domains shown)
VH: B1 VH
VL: B1 VL with H36T, T102R
B19: H183/L072 VL T97A (antibody, name in Kabat numbering, V domains shown)
VH: B1 VH
VL: B1 VL with H36T, T102A
B20: H183/L072 VL T92Q (antibody, name in Kabat numbering, V domains shown)
VH: B1 VH
VL: B1 VL with H36T, T97Q
B21: H183/L072 VL T97M (antibody, name in Kabat numbering, V domains shown)
VH: B1 VH
VL: B1 VL with H36T, T102M
B22: H183/L072 VL T31S (antibody, name in Kabat numbering, V domains shown)
VH: B1 VH
VL: B1 VL with H36S
B23: H183/L072 VL T97G (antibody, name in Kabat numbering, V domains shown)
VH: B1 VH
VL: B1 VL with H36T, T102G
B24: H183/L072 VL T92L (antibody, name in Kabat numbering, V domains shown)
VH: B1 VH
VL: B1 VL with H36T, T97L
B25: H183/L072 VL T92N (antibody, name in Kabat numbering, V domains shown)
VH: B1 VH
VL: B1 VL with H36T, T97N
B26: H183/L072 VL T97N (antibody, name in Kabat numbering, V domains shown)
VH: B1 VH
VL: B1 VL with H36T, T102N
B27: H183/L072 VL T97L (antibody, name in Kabat numbering, V domains shown)
VH: B1 VH
VL: B1 VL with H36T, T102L
B28: H183/L072 VL T97H (antibody, name in Kabat numbering, V domains shown)
VH: B1 VH
VL: B1 VL with H36T, T102H
B29: H183/L072 VL T97K (antibody, name in Kabat numbering, V domains shown)
VH: B1 VH
VL: B1 VL with H36T, T102K
B30: H183/L072 VL T92D (antibody, name in Kabat numbering, V domains shown)
VH: B1 VH
VL: B1 VL with H36T, T97D
B31: H183/L072 VL V27cF (antibody, name in Kabat numbering, V domains shown)
VH: B1 VH
VL: B1 VL with V30F, H36T
B32: H183/L072 VL V27cE (antibody, name in Kabat numbering, V domains shown)
VH: B1 VH
VL: B1 VL with V30E, H36T
B33: H183/L072 VL T31N (antibody, name in Kabat numbering, V domains shown)
VH: B1 VH
VL: B1 VL with H36N
B34: H183/L072 VL T92F (antibody, name in Kabat numbering, V domains shown)
VH: B1 VH
VL: B1 VL with H36T, T97F
B35: H183/L072 VL T31K (antibody, name in Kabat numbering, V domains shown)
VH: B1 VH
VL: B1 VL with H36K
B36: H183/L072 VL T92E (antibody, name in Kabat numbering, V domains shown)
VH: B1 VH
VL: B1 VL with H36T, T97E
B37: H183/L072 VL T31R (antibody, name in Kabat numbering, V domains shown)
VH: B1 VH
VL: B1 VL with H36R
B38: H183/L072 VL T92G (antibody, name in Kabat numbering, V domains shown)
VH: B1 VH
VL: B1 VL with H36T, T97G
B39: H183/L072 VL T97S (antibody, name in Kabat numbering, V domains shown)
VH: B1 VH
VL: B1 VL with H36T, T102S
B40: H183/L072 VL T97F (antibody, name in Kabat numbering, V domains shown)
VH: B1 VH
VL: B1 VL with H36T, T102F
B41: H183/L072 VL T97I (antibody, name in Kabat numbering, V domains shown)
VH: B1 VH
VL: B1 VL with H36T, T102I
B42: H183/L072 VL T97D (antibody, name in Kabat numbering, V domains shown)
VH: B1 VH
VL: B1 VL with H36T, T102D

The experiment has as its target T1, Human CD3eg linker (human).
T1 construct: Single-chain construct; also called recombinant human CD3
T1 chain: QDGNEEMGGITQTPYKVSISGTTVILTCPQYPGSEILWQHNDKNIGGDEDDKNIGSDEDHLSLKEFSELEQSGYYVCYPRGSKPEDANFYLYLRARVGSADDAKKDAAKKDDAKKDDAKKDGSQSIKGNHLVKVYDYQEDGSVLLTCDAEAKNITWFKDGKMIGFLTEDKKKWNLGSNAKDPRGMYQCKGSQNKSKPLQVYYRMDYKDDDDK
The experiment is described as follows: SPR; fold vs parent H183/L072.
With B1, the “fold change of affinity” value worked out at 0.1 fold.

On to B2, for which the “fold change of affinity” value is 0.4 fold.

On to B3, for which the “fold change of affinity” value was determined as 0.5 fold.

On to B4, for which the “fold change of affinity” value is 0.2 fold.

On to B5, for which the “fold change of affinity” value worked out at 0.6 fold.

Take B6: the “fold change of affinity” value was 0.3 fold.

Consider B7, for which the “fold change of affinity” value was 0.4 fold.

Take B8: the “fold change of affinity” value amounted to 0.5 fold.

Regarding B9, the “fold change of affinity” value was 0.1 fold.

Take B10: the “fold change of affinity” value was determined as 0 fold.

On to B11, for which the “fold change of affinity” value worked out at 0.1 fold.

Regarding B12, the “fold change of affinity” value came to 0.6 fold.

For B13, the “fold change of affinity” value came out at 0.7 fold.

For B14, the “fold change of affinity” value stood at 0.5 fold.

On to B15, for which the “fold change of affinity” value was determined as 0.8 fold.

On to B16, for which the “fold change of affinity” value was found to be 0.4 fold.

As to B17, the “fold change of affinity” value was 0.7 fold.

Turning to B18, the “fold change of affinity” value was found to be 0.4 fold.

Turning to B19, the “fold change of affinity” value amounted to 0.8 fold.

In the case of B20, the “fold change of affinity” value was determined as 0 fold.

For B21, the “fold change of affinity” value came out at 0.7 fold.

B22: the “fold change of affinity” value came out at 0.5 fold.

With B23, the “fold change of affinity” value was found to be 1 fold.

As for B24, the “fold change of affinity” value is 0.3 fold.

In the case of B25, the “fold change of affinity” value is 0.2 fold.

B26: the “fold change of affinity” value came to 0.5 fold.

With B27, the “fold change of affinity” value amounted to 0.4 fold.

As to B28, the “fold change of affinity” value worked out at 0.5 fold.

As to B29, the “fold change of affinity” value is 0.6 fold.

In the case of B30, the “fold change of affinity” value was determined as 0 fold.

Regarding B31, the “fold change of affinity” value is 0.5 fold.

In the case of B32, the “fold change of affinity” value came out at 0.7 fold.

Consider B33, for which the “fold change of affinity” value was determined as 0 fold.

With B34, the “fold change of affinity” value came to 0.3 fold.

Consider B35, for which the “fold change of affinity” value was 0.4 fold.

Turning to B36, the “fold change of affinity” value turned out to be 0 fold.

Consider B37, for which the “fold change of affinity” value amounted to 0.4 fold.

Regarding B38, the “fold change of affinity” value was determined as 0.2 fold.

In the case of B39, the “fold change of affinity” value was found to be 1.1 fold.

For the molecule B40, the “fold change of affinity” value came out at 0.3 fold.

Take B41: the “fold change of affinity” value worked out at 0.5 fold.

For B42, the “fold change of affinity” value came to 0.6 fold.
